Measured values from patent US20210009685A1 (ALTEOGEN, published 2021).

B1: CDR-L1 library clone C7 (Fab, V domains shown)
VH: EVQLVESGGGVVQPGRSLRLSCSASGFTFSGYGLSWVRQAPGKGLEWVAMISSGGSYTYYADSVKGRFAISRDNAKNTLFLQMDSLRPEDTGVYFCARHGDDPAWFAYWGQGTPVTVSS
VL: DIQLTQSPSSLSASVGDRVTITCSASSSLSSSYLHWYQQKPGKAPKPWIYGTSNLASGVPSRFSGSGSGTDYTFTISSLQPEDIATYYCQQWSSYPYMYTFGQGTKVEIK
notes: Fab clone from the phage library on the parent Fab template; Only the CDR-L1 is printed
B2: Modified antibody vAb5 (antibody, V domains shown)
VH: EVQLVESGGGVVQPGRSLRLSCSASGFTFSGYGLSWVRQAPGKGLEWVAMISSGGSYTYYADSVKGRFAISRDNAKNTLFLQMDSLRPEDTGVYFCARHGDDVAWFAYWGQGTPVTVSS
VL: DIQLTQSPSSLSASVGDRVTITCSVSSSISSNNLHWYQQKPGKAPKPWIYGTSNLASGVPSRFSGSGSGTDYTFTISSLQPEDIATYYCQQWSSYPYMYTFGQGTKVEIK
notes: Carries modified CDR-H3
B3: CDR-L1 library clone H1 (Fab, V domains shown)
VH: EVQLVESGGGVVQPGRSLRLSCSASGFTFSGYGLSWVRQAPGKGLEWVAMISSGGSYTYYADSVKGRFAISRDNAKNTLFLQMDSLRPEDTGVYFCARHGDDPAWFAYWGQGTPVTVSS
VL: DIQLTQSPSSLSASVGDRVTITCSASSSISSSYLHWYQQKPGKAPKPWIYGTSNLASGVPSRFSGSGSGTDYTFTISSLQPEDIATYYCQQWSSYPYMYTFGQGTKVEIK
notes: as for B1
B4: Modified antibody vAb3 (antibody, V domains shown)
VH: EVQLVESGGGVVQPGRSLRLSCSASGFTFSGYGLSWVRQAPGKGLEWVAMISSGGSYTYYADSVKGRFAISRDNAKNTLFLQMDSLRPEDTGVYFCARHGDDPAWFAYWGQGTPVTVSS
VL: DIQLTQSPSSLSASVGDRVTITCSASSGLSSSYLHWYQQKPGKAPKPWIYGTSNLASGVPSRFSGSGSGTDYTFTISSLQPEDIATYYCQQWSSYPYMYTFGQGTKVEIK
notes: Carries modified CDR-L1
B5: CDR-L2 library clone B1 (Fab, V domains shown)
VH: EVQLVESGGGVVQPGRSLRLSCSASGFTFSGYGLSWVRQAPGKGLEWVAMISSGGSYTYYADSVKGRFAISRDNAKNTLFLQMDSLRPEDTGVYFCARHGDDPAWFAYWGQGTPVTVSS
VL: DIQLTQSPSSLSASVGDRVTITCSVSSSISSNNLHWYQQKPGKAPKPWIYATSSRATGVPSRFSGSGSGTDYTFTISSLQPEDIATYYCQQWSSYPYMYTFGQGTKVEIK
notes: Fab clone from the phage library on the parent Fab template; Only the CDR-L2 is printed
B6: CDR-L2 library clone G3 (Fab, V domains shown)
VH: EVQLVESGGGVVQPGRSLRLSCSASGFTFSGYGLSWVRQAPGKGLEWVAMISSGGSYTYYADSVKGRFAISRDNAKNTLFLQMDSLRPEDTGVYFCARHGDDPAWFAYWGQGTPVTVSS
VL: DIQLTQSPSSLSASVGDRVTITCSVSSSISSNNLHWYQQKPGKAPKPWIYATSNLASGVPSRFSGSGSGTDYTFTISSLQPEDIATYYCQQWSSYPYMYTFGQGTKVEIK
notes: as for B5
B7: Modified antibody vAb4 (antibody, V domains shown)
VH: EVQLVESGGGVVQPGRSLRLSCSASGFTFSGYGLSWVRQAPGKGLEWVAMISSGGSYTYYADSVKGRFAISRDNAKNTLFLQMDSLRPEDTGVYFCARHGDDPAWFAYWGQGTPVTVSS
VL: DIQLTQSPSSLSASVGDRVTITCSVSSSISSNNLHWYQQKPGKAPKPWIYGTSSRASGVPSRFSGSGSGTDYTFTISSLQPEDIATYYCQQWSSYPYMYTFGQGTKVEIK
notes: Carries modified CDR-L2
B8: CDR-L1 library clone H7 (Fab, V domains shown)
VH: EVQLVESGGGVVQPGRSLRLSCSASGFTFSGYGLSWVRQAPGKGLEWVAMISSGGSYTYYADSVKGRFAISRDNAKNTLFLQMDSLRPEDTGVYFCARHGDDPAWFAYWGQGTPVTVSS
VL: DIQLTQSPSSLSASVGDRVTITCSVSSSLSSSNLHWYQQKPGKAPKPWIYGTSNLASGVPSRFSGSGSGTDYTFTISSLQPEDIATYYCQQWSSYPYMYTFGQGTKVEIK
notes: as for B1
B9: CDR-L1 library clone F3 (Fab, V domains shown)
VH: EVQLVESGGGVVQPGRSLRLSCSASGFTFSGYGLSWVRQAPGKGLEWVAMISSGGSYTYYADSVKGRFAISRDNAKNTLFLQMDSLRPEDTGVYFCARHGDDPAWFAYWGQGTPVTVSS
VL: DIQLTQSPSSLSASVGDRVTITCRASSGVSSNNLHWYQQKPGKAPKPWIYGTSNLASGVPSRFSGSGSGTDYTFTISSLQPEDIATYYCQQWSSYPYMYTFGQGTKVEIK
notes: as for B1
B10: Modified antibody vAb2 (antibody, V domains shown)
VH: EVQLVESGGGVVQPGRSLRLSCSASGFTFSGYGLSWVRQAPGKGLEWVAMISSGGSYTYYADSVKGRFAISRDNAKNTLFLQMDSLRPEDTGVYFCARHGDDPAWFAYWGQGTPVTVSS
VL: DIQLTQSPSSLSASVGDRVTITCSASSGLSSSYLHWYQQKPGKAPKPWIYGTSSRASGVPSRFSGSGSGTDYTFTISSLQPEDIATYYCQQWSSYPYMYTFGQGTKVEIK
notes: Carries modified CDR-L1 and CDR-L2
B11: CDR-L1 library clone D5 (Fab, V domains shown)
VH: EVQLVESGGGVVQPGRSLRLSCSASGFTFSGYGLSWVRQAPGKGLEWVAMISSGGSYTYYADSVKGRFAISRDNAKNTLFLQMDSLRPEDTGVYFCARHGDDPAWFAYWGQGTPVTVSS
VL: DIQLTQSPSSLSASVGDRVTITCRVSSGISSNNLHWYQQKPGKAPKPWIYGTSNLASGVPSRFSGSGSGTDYTFTISSLQPEDIATYYCQQWSSYPYMYTFGQGTKVEIK
notes: as for B1
B12: CDR-L1 library clone D7 (Fab, V domains shown)
VH: EVQLVESGGGVVQPGRSLRLSCSASGFTFSGYGLSWVRQAPGKGLEWVAMISSGGSYTYYADSVKGRFAISRDNAKNTLFLQMDSLRPEDTGVYFCARHGDDPAWFAYWGQGTPVTVSS
VL: DIQLTQSPSSLSASVGDRVTITCRASSGLSSNNLHWYQQKPGKAPKPWIYGTSNLASGVPSRFSGSGSGTDYTFTISSLQPEDIATYYCQQWSSYPYMYTFGQGTKVEIK
notes: as for B1
B13: CDR-L2 library clones E9, G6 (Fab, V domains shown)
VH: EVQLVESGGGVVQPGRSLRLSCSASGFTFSGYGLSWVRQAPGKGLEWVAMISSGGSYTYYADSVKGRFAISRDNAKNTLFLQMDSLRPEDTGVYFCARHGDDPAWFAYWGQGTPVTVSS
VL: DIQLTQSPSSLSASVGDRVTITCSVSSSISSNNLHWYQQKPGKAPKPWIYGASSLATGVPSRFSGSGSGTDYTFTISSLQPEDIATYYCQQWSSYPYMYTFGQGTKVEIK
notes: Fab clones from the phage library on the parent Fab template; Only the CDR-L2 is printed
B14: CDR-L2 library clone C10 (Fab, V domains shown)
VH: EVQLVESGGGVVQPGRSLRLSCSASGFTFSGYGLSWVRQAPGKGLEWVAMISSGGSYTYYADSVKGRFAISRDNAKNTLFLQMDSLRPEDTGVYFCARHGDDPAWFAYWGQGTPVTVSS
VL: DIQLTQSPSSLSASVGDRVTITCSVSSSISSNNLHWYQQKPGKAPKPWIYATSSLATGVPSRFSGSGSGTDYTFTISSLQPEDIATYYCQQWSSYPYMYTFGQGTKVEIK
notes: as for B5
B15: CDR-L2 library clone C3 (Fab, V domains shown)
VH: EVQLVESGGGVVQPGRSLRLSCSASGFTFSGYGLSWVRQAPGKGLEWVAMISSGGSYTYYADSVKGRFAISRDNAKNTLFLQMDSLRPEDTGVYFCARHGDDPAWFAYWGQGTPVTVSS
VL: DIQLTQSPSSLSASVGDRVTITCSVSSSISSNNLHWYQQKPGKAPKPWIYATSNRESGVPSRFSGSGSGTDYTFTISSLQPEDIATYYCQQWSSYPYMYTFGQGTKVEIK
notes: as for B5
B16: CDR-L2 library clone H2 (Fab, V domains shown)
VH: EVQLVESGGGVVQPGRSLRLSCSASGFTFSGYGLSWVRQAPGKGLEWVAMISSGGSYTYYADSVKGRFAISRDNAKNTLFLQMDSLRPEDTGVYFCARHGDDPAWFAYWGQGTPVTVSS
VL: DIQLTQSPSSLSASVGDRVTITCSVSSSISSNNLHWYQQKPGKAPKPWIYTASSRASGVPSRFSGSGSGTDYTFTISSLQPEDIATYYCQQWSSYPYMYTFGQGTKVEIK
notes: as for B5

Tests used:
[1] = molecular target: T1, Folate receptor alpha (FOLR1) (human, UniProt P15328 25-234, limits assumed); experiment: screening ELISA of panned phage library clones on FOLR1
T1 construct: Antigen printed simply as FOLR1 for the panning, the clone ELISA and the SPR chip; also called human FOLR1; folate receptor-α

FOLR1-Fc [2] = molecular target: T2, FOLR1-Fc (UniProt P15328 25-234, limits assumed); experiment: ELISA, FOLR1-Fc coated, antibody titrated
T2 construct: also called FOLR1 (ELISA coating); not shown: Fc part
Experimental: (§1) For the purpose of comparing the binding affinities of the primarily selected clones with each other, ELISA was performed at different clone concentrations in the following manner. 25 μL of FOLR1 was added to each well of a 96-well plate at a concentration of 1 μg/mL, coated on the plate at room temperature for 1 hour, and then blocked with 180 μL of 3% skim milk at room temperature for 1 hour. During blocking, samples to be used as primary antibodies were prepared. As primary antibodies, samples selected by screening were used. The samples were diluted to a concentration of 0.1 to 100 nM (0, 0.1, 0.3, 1, 3, 10, 30, and 100 nM) and cold-stored until use. After blocking, 3% skim milk was removed, and 25 μL of the primary antibody was added to each well and allowed to react at room temperature for 1 hour or more. After completion of the reaction, each well was washed three times with PBS-Tween20 (0.1%) buffer. As a secondary antibody, HA-HRP was diluted 3,000-fold with 3% skim milk, and 25 μL of the dilution was added to each well and allowed to react at room temperature for 1 hour or more. After completion of the reaction, each well was washed three times with PBS-Tween20 (0.1%), and 25 μL of substrate TMB was added to each well to confirm color development. After about 5 minutes, 25 μL of 1 M H₂SO₄ was added to each well to stop the reaction, and the absorbance at a wavelength of 450 nm was measured. From the measurement results, the EC (Effector concentration) value was calculated using the GraphPad Prism 7 program.
(§2) The measured values are obtained in different experiments for comparison with the parent antibody.

FOLR1-Fc [3] = molecular target: T2, FOLR1-Fc; experiment: ELISA, FOLR1-Fc coated
Experimental: as §1, §2

T2 sequence (P15328 25-234 limits assumed): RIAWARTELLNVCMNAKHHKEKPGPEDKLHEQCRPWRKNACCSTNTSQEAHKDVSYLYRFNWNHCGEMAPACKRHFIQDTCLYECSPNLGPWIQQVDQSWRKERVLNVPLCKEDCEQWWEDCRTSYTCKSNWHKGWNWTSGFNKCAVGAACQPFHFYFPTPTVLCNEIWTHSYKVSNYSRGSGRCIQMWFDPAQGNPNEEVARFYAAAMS
T1 sequence (P15328 25-234 limits assumed): as above

Row | Binder | binding result [1] | EC50 (FOLR1-Fc [2]) | Relative Potency (FOLR1-Fc [3])
1 | B1 | binds |  | 
2 | B2 |  | 2.17 ng/mL | 1.42 fold against parent antibody
3 | B3 | binds |  | 
4 | B4 |  | 0.77 ng/mL | 3.99 fold against parent antibody
5 | B5 | binds |  | 
6 | B6 | binds |  | 
7 | B7 |  | 1.59 ng/mL | 1.94 fold against parent antibody
8 | B8 | binds |  | 
9 | B9 | binds |  | 
10 | B10 |  | 3.94 ng/mL | 3.04 fold against parent antibody
11 | B11 | binds |  | 
12 | B12 | binds |  | 
13 | B13 | binds |  | 
14 | B14 | binds |  | 
15 | B15 | binds |  | 
16 | B16 | binds |  | 
